Entries after “also recorded” stand apart in the source; their conditions may differ.
Assays:
[1] = test system: O-glycosylated α-Her2 heavy chain (Hc); format: cell-based, Pichia pastoris
O-glycans of α-Her2 = experiment: O-mannose chain length analysis by HPAEC-PAD of O-glycans released from α-Her2 from fermented MNS1 strains; format: cell-based, Pichia pastoris

B1: Aspergillus oryzae: A. oryzae α-1,2-mannosidase, GenBank BAE57653, SEQ ID NO: 14 (protein, listed as Aspergillus oryzae)
chain: YPQFKFEQRVARSNSSESRANAVKEAFVHAWDGYMQYAYPHDELHPISNGVGDSRNGWGASAVDALSTAVIMGNETIVNQILDHIATIDYSKTDDQVSLFETTIRYLGGMLSGYDLLKGPASNLVKDQAKVKTLLDQSQNLADVLKFAFDTPSGIPYNNINITSHGNDGATTNGLAVTGTLVLEWTRLSDLTGDTEYAQLSQKAEDYLLNPSPKSAEPFEGLVGSHINISNGAFADGQVSWNGGDDSFYEYLIKMYVYDPKRFSTYGDRWVKAAESSIKHLASHPEKRPDLTFLASYNDGQYGLSSQHLTCFDGGSFLLGGTVLDRDDFIQFGLDLVKGCHETYNQTLTGIGPESFGWDPKNVPSDQKELYERAGFYISSGAYILRPEVIESFYYAWRITGQEIYREWVWNAFVNINKYCRTDSGFAGLTNVNAANGGGRYDNQESFLFAEVLKYVYLTFAPDNEWQVQRGKGNKFVYNTEAHPVRVAA
Question: B1 was tested. Which “α-Her2 Hc migration on Western blot relative to non-transformed control” value [1] did it give?
Answer: migration is increased; also recorded: faster relative to the non-transformed control but not as fast

Question: What about the “O-Man1 (%)” value (O-glycans of α-Her2) of the same molecule?
Answer: 89%

Question: And the “effect on percentage of O-Man1 / O-mannose chain length relative to no MNS1 control” value (O-glycans of α-Her2)?
Answer: reduced O-mannose chain length, but to a lesser extent

B2: Chaetomiun globosum: C. globosum α-1,2-mannosidase, GenBank XP_001227052, SEQ ID NO: 16 (protein, listed as Chaetomium globosum)
chain: LPRLEDGGRPGAGREDSFWSKVPLHYPPDSIRPLPTGLPVQYPPIQTTTFPAEEDQAARGRRVQRQKAVRDVFAKCWASYRKLAWGADELTPVSGGRKDPFGGWSATLVDSLDTLWIMDMKTEFDEAVAAADGINFTHTAVDRVNVFETNIRYLGGFLAAFDLSGDKRLLGKATEVGDMLYKAFDTPSHMPITRWDMRAAIKGAKQVASEGLIAEVGTLSMEFTRLSMLTGDPKWFDLAQRITDDMAAQQDSTAVPGLWPLKVNGQKRIFNSGPDFTLGAMADSAYEYLPKMSAMMGGQLPMYQTMYEKAMDAATKHNLFRPMTPTNEDILIAGDVHARENGMEFEARGQHLTCFLGGLMALGGRLYGREKDVIAGRKLTDGCVWTYKAFPQGIMPESFVTVSCPAGDACEWDEGVWKKEVLRKANKDTDGPESNAEAEVIIKKQRLPQGFTAVFDRAYLLRPEAIESVFVLYRVTGKVELLEAAWDMFTAIDKATSTDLANSAIRDVTSTDKPEAKDSMESFWMAETLKYFYLIFSDPELINLNEYVLNTEAHPFRRLLPSP
Question: What does the source list for B2?
Answer: α-Her2 Hc migration on Western blot relative to non-transformed control [1]: faster relative to the non-transformed control but not as fast; O-Man1 (%) (O-glycans of α-Her2): 89%; effect on percentage of O-Man1 / O-mannose chain length relative to no MNS1 control (O-glycans of α-Her2): reduced O-mannose chain length, but to a lesser extent

B3: Penicillium citrinum: Penicillium citrinum α-1,2-mannosidase, GenBank BAA08275, SEQ ID NO: 8 (protein, listed as Penicillium citrinum)
chain: HPYGETEAVLRSEPKSNQAKADAVKEAFQHAWNGYMKYAFPHDELTPVSNGHADSRNGWGASAVDALSTAVIMGKADVVNAILEHVADIDFSKTSDTVSLFETTIRYLAGMLSGYDLLQGPAKNLVDNQDLIDGLLDQSRNLADVLKFAFDTPSGVPYNNINITSHGNDGATTNGLAVTGTLVLEWTRLSDLTGDEEYAKLSQKAESYLLKPQPSSSEPFPGLVGSSININDGQFADSRVSWNGGDDSFYEYLIKMYVYDPKRFETYKDRWVLAAESTIKHLKSHPKSRPDLTFLSSYSNRNYDLSSQHLTCFDGGSFLLGGTVLDRQDFIDFGLELVDGCEATYNSTLTKIGPDSWGWDPKKVPSDQKEFYEKAGFYISSGSYVLRPEVIESFYYAHRVTGKEIYRDWVWNAFVAINSTCRTDSGFAAVSDVNKANGGSKYDNQESFLFAEVMKYSYLAHSEDAAWQVQKGGKNTFVYNTEAHPISVARN
Question: B3 was tested. Which “O-Man1 (%)” value (O-glycans of α-Her2) did it give?
Answer: 83%

Question: What about the “effect on percentage of O-Man1 / O-mannose chain length relative to no MNS1 control” value (O-glycans of α-Her2) of the same molecule?
Answer: reduced O-mannose chain length, but to a lesser extent

B4: Aspergillus saitoi: A. saitoi α-1,2-mannosidase, GenBank BAA08634, SEQ ID NO: 12 (protein, listed as Aspergillus saitoi)
chain: YPHFGSSQPVLHSSSDTTQSRADAIKAAFSHAWDGYLQYAFPHDELHPVSNGYGDSRNGWGASAVDALSTAVIMRNATIVNQILDHVGKIDYSKTNTTVSLFETTIRYLGGMLSGYDLLKGPVSDLVQNSSKIDVLLTQSKNLADVLKFAFDTPSGVPYNNLNITSGGNDGAKTNGLAVTGTLALEWTRLSDLTGDTTYADLSQKAESYLLNPQPKSAEPFPGLVGSNINISNGQFTDAQVSWNGGDDSYYEYLIKMYVYDPKRFGLYKDRWVAAAQSTMQHLASHPSSRPDLTFLASYNNGTLGLSSQHLTCFDGGSFLLGGTVLNRTDFINFGLDLVSGCHDTYNSTLTGIGPESFSWDTSDIPSSQQSLYEKAGFYITSGAYILRPEVIESFYYAWRVTGQETYRDWIWSAFSAVNDYCRTSSGFSGLTDVNAANGGSRYDNQESFLFAEVMKYSYMAFAEDAAWQVQPGSGNQFVFNTEAHPVRVSST
Question: B4 was tested. Which “α-Her2 Hc migration on Western blot relative to non-transformed control” value [1] did it give?
Answer: faster relative to the non-transformed control but not as fast

Question: And the “O-Man1 (%)” value (O-glycans of α-Her2)?
Answer: 86%

Question: And the “effect on percentage of O-Man1 / O-mannose chain length relative to no MNS1 control” value (O-glycans of α-Her2)?
Answer: reduced O-mannose chain length, but to a lesser extent

— patent publication US20120135461A1, “PRODUCTION OF GLYCOPROTEINS WITH REDUCED O-GLYCOSYLATION COMPRISING THE USE OF AN ALPHA-1,2-MANNOSIDASE” (priority 2010, published 2012)
